Experimental data published in the supplement of paper PMC10899765.

How the values were obtained:
Settings in all cases: 20 nM; 72 h
MCF10A [1] = experiment: one-nucleolus phenotype percent effect (relative to siNT 0% and siNOL11 100%); higher = more cells with one nucleolus (ribosome biogenesis inhibition)
Experimental: (§1)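 After 72 h, cells were fixed and stained with Hoechst and anti-fibrillarin, and nucleoli per nucleus were counted with CellProfiler. Values are plate-adjusted percent effect for the one-nucleolus and 5+ nucleoli phenotypes, normalised to siNT (0%) and to the positive controls siNOL11 or siKIF11 (100%), as the mean of biological triplicates. Percent viability is the nuclei count relative to siNT.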

MCF10A [2] = experiment: 5+ nucleoli phenotype percent effect (relative to siNT 0% and siKIF11 100%); higher = more cells with five or more nucleoli
Experimental: as §1

MCF10A [3] = experiment: percent viability (nuclei count relative to siNT); higher = more viable cells
Experimental: as §1

Sequence | one-nucleolus phenotype percent effect (MCF10A [1]) [%] | 5+ nucleoli phenotype percent effect (MCF10A [2]) [%] | percent viability (MCF10A [3]) [%]
UCCCUGUCCUCCAGGAGCUCACG [hsa-miR-339-5p] | 0.467 | -0.871 | 51.6
UGUGUCACUCGAUGACCACUGU [hsa-miR-597] | 13.9 | -3.83 | 47.8
UAGUGGUCAGAGGGCUUAUGA [hsa-miR-6718-5p] | 39.8 | -44.7 | 18.9
AUGUGGGCUCAGGCUCA [hsa-miR-4296] | 44.2 | -35.4 | 26.9
UGUAGAUACGAGCACCAGCCAC [hsa-miR-3935] | -7.2 | 20.9 | 38.5
UGAGGGCUCCAGGUGACGGUGG [hsa-miR-4721] | 27.2 | -20.6 | 22
GCUGACAGCAGGGCUGGCCGCU [hsa-miR-4526] | -0.679 | 16.9 | 59.2
CAGGGCCCUGGCUUUAGCAGA [hsa-miR-7160-3p] | 14.8 | -4.58 | 41.3
UGUAGGAACAGUUGAAUUUUGGCU [hsa-miR-8065] | -24.6 | 19.8 | 58.9
AAAGGUAACUGUGAUUUUUGCU [hsa-miR-548ba] | -24.2 | 38.2 | 146
UUAGUCCUGCCUGUAGGUUUA [hsa-miR-4540] | 8.27 | -37.9 | 39.3
AGGGGGGCACUGCGCAAGCAAAGCC [hsa-miR-6885-5p] | 16.6 | -29.8 | 42.5
UCCCUGCCCCCAUACUCCCAG [hsa-miR-6752-3p] | 14.5 | -28.9 | 28.7
AGAAUUGCGUUUGGACAAUCAGU [hsa-miR-2964a-3p] | 34.8 | -29.2 | 28.5
UCAAUAAAUGUCUGUUGAAUU [hsa-miR-95-5p] | -26.5 | 26.3 | 101
AUGACCUAUGAAUUGACAGAC [hsa-miR-215] | 45.7 | -16.4 | 29.2
UAAGUGCUUCCAUGUUUUGGUGA [hsa-miR-302a-3p] | -15.9 | 72.3 | 78.9
UGCGACAUUGGAAGUAGUAUCA [hsa-miR-3683] | -0.47 | -3.56 | 61.1
UAUGGCUUUUCAUUCCUAUGUGA [hsa-miR-135b-5p] | 21.8 | -32.7 | 47.9
UAGCAGCACAUAAUGGUUUGUG [hsa-miR-15a-5p] | 40.1 | -43.7 | 17.3

Sequence | one-nucleolus phenotype percent effect (MCF10A [1]) [%] | 5+ nucleoli phenotype percent effect (MCF10A [2]) [%] | percent viability (MCF10A [3]) [%]
UAAAACUGCAGUUAUUUUUGC [hsa-miR-548ar-3p] | -24.2 | 38.3 | 122
AGAGGCUGAGAAGGUGAUGUUG [hsa-miR-6884-5p] | 41.6 | -24.7 | 22.3
UGUAAACAUCCUCGACUGGAAG [hsa-miR-30a-5p] | -3.76 | 9.35 | 47.2
CAUAGCCCGGUCGCUGGUACAUGA [hsa-miR-3651] | 17.1 | -7.1 | 70
AGAAGUGGCUAAUAAUAUUGA [hsa-miR-4795-5p] | -14.7 | -2.9 | 34.5
CCCAGAUAAUGGCACUCUCAA [hsa-miR-488-5p] | -5.8 | 32.8 | 50.9
UGACUUCUACCUCUUCCAAAG [hsa-miR-6505-3p] | 46.6 | -48 | 33.6
UGACCCACCCCUCUCCACCAG [hsa-miR-7114-3p] | 6.96 | -4.79 | 35.3
CAACACCAGUCGAUGGGCUGU [hsa-miR-21-3p] | 35.5 | -31.2 | 52.9
ACUUGGGCAGGAGGGACCCUGUAUG [hsa-miR-6774-5p] | 31.5 | -35.9 | 22
GAAUGUUGCUCGGUGAACCCCU [hsa-miR-409-3p] | 9.98 | -31.1 | 35.9
UAAUGCCCCUAAAAAUCCUUAU [hsa-miR-365b-3p] | 5.41 | -12.3 | 37.9
AGGGUGUGUGUGUUUUU [hsa-miR-4455] | 3.96 | 13.6 | 22.4
ACAACAGUGACUUGCUCUCCAA [hsa-miR-4709-5p] | 3.79 | -18.3 | 73.8
CUAUACAAUCUAUUGCCUUCCC [hsa-let-7f-1-3p] | -6.49 | -25 | 39.2
UAGUCCCUUCCUUGAAGCGGUC [hsa-miR-2114-5p] | 43.8 | -46 | 25.2
CAGGAUGUGGUCAAGUGUUGUU [hsa-miR-1265] | -25.1 | 67.6 | 123
CCAAUUACCACUUCUUU [hsa-miR-4275] | -17.6 | 23.8 | 74.6
AAAGGUAAUUGCAGUUUUUCCC [hsa-miR-548ai] | -23.8 | 16.1 | 155
UCGCCUCCUCCUCUCCC [hsa-miR-1281] | 10.9 | -24.6 | 60.9

Sequence | one-nucleolus phenotype percent effect (MCF10A [1]) [%] | 5+ nucleoli phenotype percent effect (MCF10A [2]) [%] | percent viability (MCF10A [3]) [%]
UCGGGCGCAAGAGCACUGCAGU [hsa-miR-6499-5p] | 0.719 | -9.6 | 43.5
GCUAGUCCUGACUCAGCCAGU [hsa-miR-554] | -12.9 | 10.2 | 67.7
UUUAAGCAGGAAAUAGAAUUUA [hsa-miR-4503] | -6.55 | -5.17 | 100
CAAUUCUCAAAGGAGCCUCCC [hsa-miR-5571-5p] | 34 | -26.3 | 32.7
GAAAAUCCUUUUUGUUUUUCCAG [hsa-miR-4668-3p] | -14.6 | 28.5 | 72.8
GAAAGAGAGCUGAGUGUG [hsa-miR-4311] | 31.2 | -27.3 | 26.3
AAGGAACCAGAAAAUGAGAAGU [hsa-miR-3914] | -40.6 | 57.2 | 111
AGUGGGGAACCCUUCCAUGAGG [hsa-miR-491-5p] | 47.1 | -46.6 | 10.1
UGGAGAGAAAGGCAGUA [hsa-miR-4306] | -8.22 | 31.6 | 13.5
UGGAAAAAACUGGUGUGUGCUU [hsa-miR-3148] | -7.81 | -1.39 | 35.9
UACAAGUCAGGAGCUGAAGCAG [hsa-miR-6882-5p] | -8.28 | 1.17 | 45.8
UGACAGCGCCCUGCCUGGCUC [hsa-miR-2277-3p] | 2.24 | -19.4 | 79
CUGGGAGGGGCUGGGUUUGGC [hsa-miR-6779-5p] | 10.8 | 2.1 | 36.8
AGCGGGGAGGAAGUGGGCGCUGCUU [hsa-miR-4706] | -0.404 | -0.458 | 32.7
AGCAGACUUGACCUACAAUUA [hsa-miR-4771] | -9.9 | 3.81 | 53.6
UGGGAAUGGGGGUAAGGGCC [hsa-miR-6716-5p] | 19.7 | -19.9 | 28.8
UAGGGGUGGGGGAAUUCAGGGGUGU [hsa-miR-6782-5p] | -3.68 | 1.01 | 26.5
UGAGCUAAAUGUGUGCUGGGA [hsa-miR-610] | -14.8 | 20.7 | 131
UGAGGCUCUGUUAGCCUUGGCUC [hsa-miR-2467-5p] | 37.5 | -10.9 | 29.8
